Results reported in the supplement of paper PMC7877785.
± gives the uncertainty stated by the source.

Assay: self-splicing fitness, log relative to wild type (ln ratio); higher = more splicing; Tetrahymena group I intron in knt gene, E. coli kanamycin selection, DiMSum; sequences stand for … in CUCUCU…GGAGGGAAAAGUUAUCAGGCAUGCACCUGGUAGCUAGUCUUUAAACCAAUAGAUUGCAUCGGUUUAAAAGGCAAGACCGUCAAAUUGCGGGAAAGGGGUCAACAGCCGUUCAGUACCAAGUCUCAGGGGAAACUUUGAGAUGGCCUUGCAAAGGGUAUGGUAAUAAGCUGACGGACAUGGUCCUAACCACGCAGCCAAGUCCUAAGUCAACAGAUCUUCUGUUGAUAUGGAUGCAGUUCACAGACUAAAUGUCGGUCGGGGAAGAUGUAUUCUUCUCAUAAGAUAUAGUCGGACCUCUCCUUAAUGGGAGCUAGCGGAUGAAGUGAUGCAACACUGGAGCCGCUGGGAACUAAUUUGUAUGCGAAAGUAUAUUGAUUAGUUUUGGAGUACUCGUGGUCG
Procedure, shortened: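 Library with all eight P1ex-region intron nucleotides randomised, intron inside the knt kanamycin-resistance gene on pET-22b(+), in E. coli BL21(DE3). Cells grew overnight at 37°C or 30°C on LB agar with or without 25 μg/mL kanamycin (plus 100 μg/mL carbenicillin, 50 μM IPTG, 0.2% rhamnose), in six replicate transformations. Pooled colonies were amplicon-sequenced on Illumina HiSeq 2500. DiMSum fitness is the error-weighted combination of wild-type-normalised replicate fold changes, kanamycin versus none.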

Row | Sequence | self-splicing fitness (ln) (30 °C) | self-splicing fitness (ln) (37 °C)
1 | CGCCAGCAAUAUUACGAAAC | -4.57 ± 0.36 | -1.78 ± 0.2
2 | GACGAGCAAUAUUACGUGGU | -2.84 ± 0.1 | -2.77 ± 0.14
3 | AUGCAGCAAUAUUACGUAGC | -3.81 ± 0.37 | -2.34 ± 0.24
4 | ACGAAGCAAUAUUACGUCUU | -2.32 ± 0.17 | -1.91 ± 0.16
5 | GGAGAGCAAUAUUACGCGGA | – | -1.29 ± 0.34
6 | AGUAAGCAAUAUUACGUCCU | -0.602 ± 0.21 | 0.854 ± 0.23
7 | UCCAAGCAAUAUUACGUCCA | -1.56 ± 0.11 | -0.691 ± 0.11
8 | GACAAGCAAUAUUACGUAUG | -2.86 ± 0.11 | -1.23 ± 0.088
9 | UUUUAGCAAUAUUACGCGAG | -1.15 ± 0.077 | -0.226 ± 0.097
10 | GGAAAGCAAUAUUACGGCGU | -0.39 ± 0.071 | -0.31 ± 0.1
11 | AAUCAGCAAUAUUACGAAUC | -0.973 ± 0.1 | 0.372 ± 0.12
12 | GAGGAGCAAUAUUACGCAGG | -1.91 ± 0.35 | -2.08 ± 0.36
13 | ACCGAGCAAUAUUACGGUAA | -2.6 ± 0.18 | -1.7 ± 0.12
14 | GGACAGCAAUAUUACGGCAC | -0.469 ± 0.12 | -0.25 ± 0.15
15 | GGCUAGCAAUAUUACGGAGU | -2.86 ± 0.1 | -2.02 ± 0.13
16 | UCGCAGCAAUAUUACGGACU | -2.14 ± 0.16 | -0.513 ± 0.16
17 | ACGAAGCAAUAUUACGGGGU | -3.47 ± 0.15 | -2.33 ± 0.17
18 | CCAUAGCAAUAUUACGGUGC | -3.09 ± 0.17 | -2.61 ± 0.25
19 | ACAAAGCAAUAUUACGUUGU | -3.68 ± 0.14 | -2.18 ± 0.15
20 | GCCAAGCAAUAUUACGUUAA | -3.54 ± 0.21 | -2.89 ± 0.17
21 | UUUCAGCAAUAUUACGAUUG | -0.724 ± 0.087 | -0.057 ± 0.11
22 | GAUAAGCAAUAUUACGUCUU | -0.224 ± 0.069 | 0.135 ± 0.088
23 | UGAGAGCAAUAUUACGCUUG | -2.26 ± 0.36 | -1.55 ± 0.33
24 | GGAAAGCAAUAUUACGACUC | 0.0221 ± 0.11 | -0.214 ± 0.19

Row | Sequence | self-splicing fitness (ln) (30 °C) | self-splicing fitness (ln) (37 °C)
25 | CACAAGCAAUAUUACGUACC | -3.9 ± 0.21 | -1.36 ± 0.14
26 | GACUAGCAAUAUUACGCUUG | -1.96 ± 0.1 | -1.28 ± 0.13
27 | GGGCAGCAAUAUUACGUCCG | -0.61 ± 0.091 | -0.058 ± 0.14
28 | GGGUAGCAAUAUUACGUAAU | -0.889 ± 0.085 | -0.379 ± 0.11
29 | AACAAGCAAUAUUACGGGUG | -0.579 ± 0.047 | -0.604 ± 0.064
30 | GCGGAGCAAUAUUACGCCAA | -2.32 ± 0.44 | –
31 | GAAGAGCAAUAUUACGUUCU | -3.88 ± 0.29 | -2.8 ± 0.27
32 | UGCUAGCAAUAUUACGUGCA | -2.54 ± 0.32 | -1.99 ± 0.28
33 | UGUUAGCAAUAUUACGUUGA | -1.59 ± 0.21 | -0.731 ± 0.19
34 | CGACAGCAAUAUUACGUUAC | -3.39 ± 0.17 | -2.29 ± 0.2
35 | CCAUAGCAAUAUUACGUUUC | -3.12 ± 0.15 | -0.309 ± 0.2
36 | GCCGAGCAAUAUUACGACGU | -0.371 ± 0.11 | -0.741 ± 0.11
37 | AUCCAGCAAUAUUACGGAUC | -3.35 ± 0.18 | -3.11 ± 0.2
38 | GGGGAGCAAUAUUACGUGAA | -2.71 ± 0.085 | -1.81 ± 0.12
39 | UUAAAGCAAUAUUACGUCCC | -1.51 ± 0.11 | -0.906 ± 0.14
40 | UGAUAGCAAUAUUACGACCA | -2.04 ± 0.23 | -0.327 ± 0.37
41 | AGGGAGCAAUAUUACGCGGC | -1.89 ± 0.2 | -2.05 ± 0.31
42 | UUAUAGCAAUAUUACGUGUU | -4.16 ± 0.33 | -3.11 ± 0.33
43 | GCUCAGCAAUAUUACGCGGC | -3.83 ± 0.47 | -1.46 ± 0.26
44 | GUGUAGCAAUAUUACGCACG | -3.57 ± 0.27 | -2.25 ± 0.22
45 | AAAUAGCAAUAUUACGCAAG | -2.14 ± 0.094 | -1.13 ± 0.11
46 | CUCUAGCAAUAUUACGCGAA | -2.68 ± 0.24 | -3.56 ± 0.28
47 | AUUUAGCAAUAUUACGCACU | 0.177 ± 0.13 | 0.474 ± 0.16
48 | AGGUAGCAAUAUUACGCUUU | -3.041 ± 0.022 | -1.76 ± 0.036
